Experimental findings from article doi:10.1101/2025.03.21.644421 (bioRxiv, 2025) are described below.

Data set [1] has as its target T1, LetA (N-terminal 6xHis2xQH-TEV tagged LetA) (E. coli, UniProt P0AD03 1-427).
T1 sequence (looked up): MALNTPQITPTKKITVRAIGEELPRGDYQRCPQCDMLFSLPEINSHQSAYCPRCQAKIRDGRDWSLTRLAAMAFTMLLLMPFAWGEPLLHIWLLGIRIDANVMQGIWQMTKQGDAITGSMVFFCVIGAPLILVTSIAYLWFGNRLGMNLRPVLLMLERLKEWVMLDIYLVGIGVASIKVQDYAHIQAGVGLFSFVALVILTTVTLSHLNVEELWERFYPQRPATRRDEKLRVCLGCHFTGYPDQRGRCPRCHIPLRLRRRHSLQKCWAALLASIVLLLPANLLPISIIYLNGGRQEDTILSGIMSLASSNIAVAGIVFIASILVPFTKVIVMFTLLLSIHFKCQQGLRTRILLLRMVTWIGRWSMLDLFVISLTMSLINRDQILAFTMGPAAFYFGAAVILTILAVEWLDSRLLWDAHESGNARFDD
As to the kind of experiment: cryo-EM structure.

Data set [2] concerns the molecule itself. As to the kind of experiment: cryo-EM structure.

As usually defined, the stoichiometry N is the number of molecules, sites or subunits per partner or assembly.

B1: LetB (Lipophilic Envelope-spanning Tunnel B), untagged (natural protein, E. coli, UniProt P76272 1-877, looked up)
chain: MSQETPASTTEAQIKNKRRISPFWLLPFIALMIASWLIWDSYQDRGNTVTIDFMSADGIVPGRTPVRYQGVEVGTVQDISLSDDLRKIEVKVSIKSDMKDALREETQFWLVTPKASLAGVSGLDALVGGNYIGMMPGKGKEQDHFVALDTQPKYRLDNGDLMIHLQAPDLGSLNSGSLVYFRKIPVGKVYDYAINPNKQGVVIDVLIERRFTDLVKKGSRFWNVSGVDANVSISGAKVKLESLAALVNGAIAFDSPEESKPAEAEDTFGLYEDLAHSQRGVIIKLELPSGAGLTADSTPLMYQGLEVGQLTKLDLNPGGKVTGEMTVDPSVVTLLRENTRIELRNPKLSLSDANLSALLTGKTFELVPGDGEPRKEFVVVPGEKALLHEPDVLTLTLTAPESYGIDAGQPLILHGVQVGQVIDRKLTSKGVTFTVAIEPQHRELVKGDSKFVVNSRVDVKVGLDGVEFLGASASEWINGGIRILPGDKGEMKASYPLYANLEKALENSLSDLPTTTVSLSAETLPDVQAGSVVLYRKFEVGEVITVRPRANAFDIDLHIKPEYRNLLTSNSVFWAEGGAKVQLNGSGLTVQASPLSRALKGAISFDNLSGASASQRKGDKRILYASETAARAVGGQITLHAFDAGKLAVGMPIRYLGIDIGQIQTLDLITARNEVQAKAVLYPEYVQTFARGGTRFSVVTPQISAAGVEHLDTILQPYINVEPGRGNPRRDFELQEATITDSRYLDGLSIIVEAPEAGSLGIGTPVLFRGLEVGTVTGMTLGTLSDRVMIAMRISKRYQHLVRNNSVFWLASGYSLDFGLTGGVVKTGTFNQFIRGGIAFATPPGTPLAPKAQEGKHFLLQESEPKEWREWGTALPK
B1: the results for the “stoichiometry N” value in data set [1] and in data set [2] were 6 LetB per LetA and 6, respectively.
